Results: publication PMC3425544, “The S100A10 Subunit of the Annexin A2 Heterotetramer Facilitates L2-Mediated Human Papillomavirus Infection” (PLoS ONE, 2012)
Entries after “also recorded” stand apart in the source; their conditions may differ.

Assays:
HIV-1 = settings: macrophages; ref [34]; cited from earlier work
Text: A particular local immune event that has been well studied in the context of HPV infection is mucosal co-infection with herpes simplex virus (HSV). Historically, in the 1960s and 1970s, HSV-2 infection was thought to be a possible causative agent for cervical cancer, [31]. However, the role of HSV-2 in cervical cancer began to be questioned when HSV-2 DNA was not consistently found in cervical cancer tissues. Subsequently, HPV DNA was detected in the overwhelming majority of cervical cancer tissue and determined to be the causative agent. […] To test this hypothesis, the effect of SLPI and antibody inhibition of A2t on HPV16 infection of epithelial cel ...

A2t = assay: ELISA binding to immobilised A2t; parameters: species or system human; settings: 500 ng A2t coated, 400 ng PsV, H16.V5 or anti-SLPI detection
Protocol: For assays to determine accessibility of L2_108–120 epitope on capsid surface, 96-well Microlon ELISA plates (USA Scientific, Ocala, FL) were incubated with 500 ng of HPV16 L1 VLP, HPV16 L1L2 VLP or HPV16 PsV in 100 µL PBS overnight at 4°C. The plate was washed with PBST ([…]) and blocked with 200 µL of PBS containing 3% BSA for 2 h at RT. The plate was washed with PBST and incubated with 1∶1000 16L2.4B4 (anti-L2_108–120) or 1∶5000 H16.V5 (anti-L1) in PBST with 1% BSA for 2 h at RT. The plate was washed and incubated with 1∶5000 rabbit-anti-mouse HRP in PBST with 1% BSA for 1 h at RT. The plate was washed, and 100 µL of the HRP substrate (o-phenylenediamine) was added. The absorbance was measured at 490 nm with a Hidex Chameleon plate reader. In control experiments, no VLP or PsV were added, and stained with primary, secondary, or both antibodies and minimal absorbance was seen. For assays to determine in vitro binding capacity of HPV16 capsids to purified A2t protein, 500 ng of purified A2t was coated separately on ELISA plates overnight at 4°C. […] Bound PsV were detected with conformational anti-L1 H16.V5 antibody, followed by anti-mouse IgG HRP antibody conjugate. Bound SLPI was detected with goat anti-SLPI antibody, followed by anti-goat IgG HRP antibody conjugate and addition of substrate.

HSV = settings: ref [33]; cited from earlier work
Text: Nonetheless, the link between HSV and H ...

[1] = test system: HPV16 PsV infection of HeLa cells; settings: PsV infectivity, FBS present; ref [38]; cited from earlier work
Protocol: SLPI has shown anti-bacterial and anti-fungal activity aside from its noted anti-protease activity (reviewed in [68]). […] Concentrations in cervical mucosal fluids are commonly reported at 1 µg/ml, but are likely to be more concentrated at the cell surface. In addition, SLPI levels in cervical mucus have been measured midcycle as high as ...

[2] = test system: HPV16 PsV infection of HeLa cells; assay: HPV16 PsV infection of HeLa cells (GFP, flow cytometry); assay type: cell-based, human; settings: presence of FBS during SLPI incubation and PsV infection; data not shown
Protocol: (§1) HeLa cells (ATCC, Manassas, VA) are human epithelial cells derived from cervical cancer, and were maintained in complete media (IMDM, 10% FBS, 1X PenStrep) at 37°C with 5% CO2 (Lonza, Walkersville, MD). HaCaT cells (Cell Lines Service, Eppelheim, Germany) are in vitro spontaneously transformed human keratinocytes derived from histologically normal skin [75] and were maintained in Defined Keratinocyte Serum-Free Media (KSFM) (Invitrogen, Carlsbad, CA) with manufacturer provided KSFM growth supplement (including insulin, EGF, and FGF) at 37°C with 5% CO2.
Wildtype HPV16 pseudovirions containing GFP reporter were produced by cotransfection of 293TT cells with plasmids encoding codon-optimized HPV16 L1 and L2 and a GFP reporter plasmid (pCIneoGFP) following published procedures. The infectious titer of PsV preparations (in infectious units/mL) was determined by flow cytometric analysis of 293TT cells treated with varying doses of PsV vector stock. […] Confirmation and quantitation of reporter plasmid DNA encapsidation was performed using quantitative real-time PCR following plasmid DNA isolation from pseudovirion preparations by phenol chloroform extraction and ethanol precipitation. L1 content was quantitated by Coomassie Blue staining next to BSA standards following SDS-PAGE. The infectious titer of L2 mutant PsV were determined on 293TT cells as described above for WT PsV. […]

[3] = test system: HPV16 PsV infection of HaCaT cells; assay: HPV16 PsV infection of HaCaT cells (GFP, flow cytometry); assay type: cell-based, human
Protocol: as §1
Wildtype HPV16 pseudovirions containing GFP reporter were produced by cotransfection of 293TT cells with plasmids encoding codon-optimized HPV16 L1 and L2 and a GFP reporter plasmid (pCIneoGFP) following published procedures. The infectious titer of PsV preparations (in infectious units/mL) was determined by flow cytometric analysis of 293TT cells treated with varying doses of PsV vector stock. Neutralization of PsV were validated in infection assays via pre-incubation with H16.V5 or H16.E70 prior to cellular exposure, and minimal infection rates of less than 1% were observed. To produce pseudovirions with a mutated L2 (108–126) region, site-directed mutagenesis was performed using overlapping mutated primers on the bicistronic packaging HPV16 pseudovirion plasmid p16sheLL as a template. Forward primer 5′-[…]-3′ and reverse primer 5′-[…]-3′ encoding the amino acid substitution of GGDD for LVEE in the L2 capsid region aa 108–111 were used with the QuikChange II XL Site-Directed Mutagenesis Kit (Stratagene, Cedar Creek, TX) according to manufacturer’s instructions. The entire L1 and L2 ORFs of the resulting plasmid were sequenced to confirm mutagenesis of the 108–111 aa L2 region and that no other unexpected mutations were introduced. HPV16 L1–L2(GGDD) PsV containing GFP reporter plasmid were produced as described above for wildtype HPV16 PsV. Confirmation and quantitation of reporter plasmid DNA encapsidation was performed using quantitative real-time PCR following plasmid DNA isolation from pseudovirion preparations by phenol chloroform extraction and ethanol precipitation. L1 content was quantitated by Coomassie Blue staining next to BSA standards following SDS-PAGE. The infectious titer of L2 mutant PsV were determined on 293TT cells as described above for WT PsV.
HaCaT cells seeded at 3×10^4 cells/well or HeLa cells seeded at 2×10^4 cells/well were incubated overnight in 24-well plates at 37°C. The cells were subsequently incubated with wildtype HPV16 PsV containing a pCIneo-GFP vector at an MOI 100 for HaCaT or MOI of 1 for HeLa. The MOIs were chosen for each cell type that achieved 15–25% GFP-positive cells. Infectivity was scored 48 h post infection by enumerating GFP+ cells by flow cytometry. […]

B1: secretory leukocyte protease inhibitor (protein)
chain: SGKSFKAGVCPPKKSAQCLRYKKPECQSDWQCPGKKRCCPDTCGIKCLDPVDTPNPTRRKPGKCPVTYGQCLMLNPPNFCEMDGQCKRDLKCCMGMCGKSCVSPVKA
notes: endogenous annexin A2 ligand
Question: Which results are given for B1?
Answer: inhibition of HIV-1 infection (HIV-1): inhibit HIV-1 infection of macrophages; also recorded: inhibits the infection of HIV-1; binding to A2t (absorbance at 490 nm) (A2t): significant binding; inhibition of HSV infection (HSV): inhibit HSV infection; HPV16 infection of HeLa, SLPI in presence of FBS [1]: no reduction in HPV16 infection; PsV infection, presence of FBS [2]: no reduced infection; also recorded: eliminated the blocking effect of SLPI completely; pseudo-infection, 25 µg/mL ([3]; 25 µg/mL SLPI vs negative and BSA controls, serum free): significant decrease in pseudo-infection; pseudo-infection, 50 µg/mL ([3]; 50 µg/mL SLPI vs negative and BSA controls, serum free): pseudo-infection further decreased; decrease in pseudo-infection ([3]; 25–50 µg/mL SLPI, 1 h at 4°C prior to PsV, serum free, vs untreated HaCaT cells, 48 h): 60–80%; SLPI inhibition of HPV16 infection ([3]; HaCaT cells, discussion): can inhibit HPV16 infection
